Data on twelve molecules can be found in article PMC3281842, “Crystal Structure of TDRD3 and Methyl-Arginine Binding Characterization of TDRD3, SMN and SPF30” (PLoS ONE, 2012).

Conditions in all cases: both partners purified
Experiment [1] concerns the target T1, TDRD3 (aa 520–633) (human, UniProt Q9H7E2 520-633).
T1 construct: cloned into the pET28-MHL vector; also called Tudor domain-containing protein 3; source: E. coli BL21 (DE3), purified (Ni-NTA, size exclusion chromatography)
Nature of the experiment: fluorescence polarisation; fluorescein-labeled peptides; 20 mM Tris pH 7.5, 50 mM NaCl, 1 mM DTT, 0.01% Triton X-100; 25°C; one-site binding model; Kd the average of three independent measurements. Background: In fluorescence polarisation assays a small probe gives low polarisation when free and higher when bound to something large.

Experiment [2] addresses T2, SMN (aa 80–170) (human, UniProt Q16637 80-170).
T2 construct: Survival motor neuron protein (SMN), human, residues 80-170, covers the Tudor domain; cloned into the pET28-MHL vector; also called Survival motor neuron protein; source: E. coli BL21 (DE3), purified (Ni-NTA, size exclusion chromatography)
The description is as above.

Experiment [3] deals with T3, SPF30 (aa 65–150) (human, UniProt O75940 65-150).
T3 construct: Splicing factor 30 kDa (SPF30, SMNDC1), human, residues 65-150, covers the Tudor domain; cloned into the pET28-MHL vector; also called Splicing factor 30 kDa; SMNDC1; source: E. coli BL21 (DE3), purified (Ni-NTA, size exclusion chromatography)
T3 sequence (looked up): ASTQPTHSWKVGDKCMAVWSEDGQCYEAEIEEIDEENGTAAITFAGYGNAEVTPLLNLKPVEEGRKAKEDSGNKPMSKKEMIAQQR
Described as above.

For experiment [4], the target named is T4, SND1 (aa 650–910) (UniProt Q7KZF4 650-910).
T4 construct: SND1, residues 650-910, extended Tudor domain; also called extended Tudor domain of SND1
T4 sequence (looked up): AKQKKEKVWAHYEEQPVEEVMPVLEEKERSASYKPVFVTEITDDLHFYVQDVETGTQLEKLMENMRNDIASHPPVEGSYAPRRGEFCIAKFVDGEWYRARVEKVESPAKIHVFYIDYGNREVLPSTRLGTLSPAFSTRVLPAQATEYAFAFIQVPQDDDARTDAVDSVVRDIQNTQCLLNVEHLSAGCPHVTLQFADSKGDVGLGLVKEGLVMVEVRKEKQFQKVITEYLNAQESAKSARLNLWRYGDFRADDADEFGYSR
The description is as above.

In experiment [5] the target is T5, SMN construct covering only the Tudor domain (residues 82–147) (human, UniProt Q16637 82-147).
T5 construct: Survival motor neuron protein (SMN), human, residues 82-147, only the Tudor domain; also called SMN Tudor domain; source: E. coli BL21 (DE3), purified (Ni-NTA, size exclusion chromatography)
T5 sequence (Q16637 82-147): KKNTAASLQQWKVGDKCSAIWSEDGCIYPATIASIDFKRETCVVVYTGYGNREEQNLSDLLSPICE
Described as above.

The target in experiment [6] is T1, TDRD3 (aa 520–633). Nature of the experiment: ITC; 20 mM Tris pH 8.0, 200 mM NaCl; 25°C; one-site binding model. A general note: In ITC the heat of successive injections is recorded.

Square brackets hold non-standard residues; d marks the D form. Ends that are not written are not given here. Arg(Me2a) = CN(C)C(=N)NCCC[C@H](N)C(=O)O; Arg(Me2s) = CN=C(NC)NCCC[C@H](N)C(=O)O; Arg(Me) = CNC(=N)NCCC[C@H](N)C(=O)O

T2 sequence (Q16637 80-170): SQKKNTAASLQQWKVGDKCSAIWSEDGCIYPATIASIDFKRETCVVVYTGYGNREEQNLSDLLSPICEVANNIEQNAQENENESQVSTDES

B1: PIWIL1-R4me1 (peptide)
peptide: TG[Arg(Me)]ARARARGRARGQE
modifications: also: fluorescein label, position not given here
notes: N-terminal GAR motif stretch of PIWIL1, R4 monomethylated; also called monomethylated PIWIL1 peptide; source: synthetic peptide (Tufts University Core Services)
Take B1: the Kd (as a rule, the concentration at which binding is half-saturated) in experiment [1] is greater than 500 µM; in experiment [2], greater than 150 µM; in experiment [3] it was greater than 500 µM.

B2: PIWIL1-R4un (peptide)
peptide: TGRARARARGRARGQE
modifications: also: fluorescein label, position not given here
notes: N-terminal GAR motif stretch of PIWIL1, unmethylated; also called unmethylated PIWIL1 peptide; source: synthetic peptide (Tufts University Core Services)
In the case of B2, the Kd in experiment [1] is greater than 500 µM; in experiment [2], greater than 300 µM; in experiment [3] it was greater than 500 µM.

B3: H3R2me2s (peptide)
peptide: A[Arg(Me2s)]TKQTARKSY
modifications: also: fluorescein label, position not given here
notes: histone H3 N-terminal tail; C-terminal tyrosine printed at the end of the peptide; also called histone H3R2 peptide, symmetrically dimethylated; source: synthetic peptide (Tufts University Core Services)
For the molecule B3, the Kd in experiment [2] is greater than 150 µM.

B4: PGM(SmB165SD) (peptide)
peptide: YPPG[Arg(Me2s)]GGPPP
modifications: also: fluorescein label, position not given here
notes: PGM motif stretch of the splicing protein SmB; also called sDMA PGM motif peptide from SmB; source: synthetic peptide (Tufts University Core Services)
Turning to B4, the figures for the Kd in experiment [2] and in experiment [4] were greater than 300 µM and greater than 500 µM, respectively.

B5: SmD3RSDMA (peptide)
peptide: GGRG[Arg(Me2s)]GRG
modifications: also: fluorescein label, position not given here
notes: GAR motif peptide named after SmD3; also called SmD3 peptide; source: synthetic peptide (Tufts University Core Services)
With B5, the values for the Kd in experiment [1], in experiment [2] and in experiment [4] were greater than 400 µM, 94 ± 4 µM and 56 ± 8 µM, respectively.

B6: PIWIL1-R4me2s (peptide)
peptide: TG[Arg(Me2s)]ARARARGRARGQE
modifications: also: fluorescein label, position not given here
notes: N-terminal GAR motif stretch of PIWIL1, R4 symmetrically dimethylated; also called symmetrical dimethylated peptide of the PIWIL1 protein; source: synthetic peptide (Tufts University Core Services)
In the case of B6, the Kd was 46 µM in experiment [5], greater than 300 µM in experiment [1], 34 ± 2 µM in experiment [2] and greater than 200 µM in experiment [3].

B7: H3R2me1 (peptide)
peptide: A[Arg(Me)]TKQTARKSY
modifications: also: fluorescein label, position not given here
notes: histone H3 N-terminal tail; C-terminal tyrosine printed at the end of the peptide; also called histone H3R2 peptide, monomethylated; source: synthetic peptide (Tufts University Core Services)
B7: the Kd in experiment [2] and in experiment [4] was greater than 300 µM in each case.

B8: PIWIL1-R4me2a (peptide)
peptide: TG[Arg(Me2a)]ARARARGRARGQE
modifications: also: fluorescein label, position not given here
notes: N-terminal GAR motif stretch of PIWIL1, R4 asymmetrically dimethylated; also called asymmetrical dimethylated PIWIL1 peptide; source: synthetic peptide (Tufts University Core Services)
Turning to B8, the Kd in experiment [1] is greater than 150 µM; in experiment [2] it was 97 ± 3 µM; in experiment [3], greater than 400 µM.

B9: PGM(SmB214SD) (peptide)
peptide: PPGM[Arg(Me2s)]PPPPG
modifications: also: fluorescein label, position not given here
notes: as for B4
With B9, the Kd in experiment [2] is greater than 400 µM.

B10: PGM(SmB221SD) (peptide)
peptide: PPGM[Arg(Me2s)]GPPP
modifications: also: fluorescein label, position not given here
notes: as for B4
B10 returned a dissociation constant (Kd) in experiment [2] greater than 500 µM.

B11: PIWIL1_R4me2a peptide (TGRme2aARARA) (peptide)
peptide: TG[Arg(Me2a)]ARARA
notes: N-terminal GAR motif stretch of PIWIL1, R4 asymmetrically dimethylated; also called PIWIL1_R4me2a peptide of the ITC measurement; source: synthetic peptide (Tufts University Core Services)
Regarding B11, the binding result in experiment [6] is recorded as “binds”.

B12: H3R2me2a (peptide)
peptide: A[Arg(Me2a)]TKQTARKSY
modifications: also: fluorescein label, position not given here
notes: histone H3 N-terminal tail; C-terminal tyrosine printed at the end of the peptide; also called histone H3R2 peptide, asymmetrically dimethylated; source: synthetic peptide (Tufts University Core Services)
Consider B12, for which the values for the Kd in experiment [2] and in experiment [4] were greater than 200 µM and greater than 300 µM, respectively.
